Like-named read-outs stand apart in the source and are kept apart here.
How the values were obtained:
[1] = target: PDL1 (CD274) on CT26 cells (Mus musculus, UniProt Q9EP73 Q9EP73:19-290); test: flow; apparent Kd on CT26 cells; conditions: tags: endogenous, CT26 colorectal cancer cells; label: fluorescent dye (not specified)
[2] = target: PDL1 (CD274) on LL/2 cells (Mus musculus, UniProt Q9EP73 Q9EP73:19-290); test: flow; apparent Kd on LL/2 cells; conditions: tags: endogenous, LL/2 lung carcinoma cells; label: fluorescent dye (not specified)
[3] = target: T1, PDL1 (CD274, B7-H1) (Homo sapiens, UniProt Q9NZQ7 Q9NZQ7:19-238); test: filter; passed cut-off of 5 for PDL1/BSA signal, qPCR
Description: Evaluation of the Relative Binding Ability of Candidate PDL1 Aptamers Using Nitrocellulose Filter Binding Assay The sequences of candidate PDL1 targeting aptamers were ranked by output reads from next-generation sequencing and sequences with output reads over 100 were analyzed. Among them, top 50 candidate aptamer sequences accounted for over 85% output reads. To evaluate their binding abilities toward PDL1, these top 50 candidate aptamers were synthesized and analyzed by nitrocellulose filter binding assay. The binding abilities toward BSA were used as negative control. In brief, candidate aptamer was incubated with PDL1 or BSA, respectively. Aptamer-protein complexes were collected by nitrocellulose filter and eluted by heating. The number of eluted aptamer was quantified by quantitative PCR and normalized by dividing the signal from PDL1 group to signal from BSA group. In order to find out the PDL1 aptamer with higher specificity, the cut-off value was set at 5.

[4] = target: T1, PDL1 (CD274, B7-H1); test: competition; ED50 for blocking PD-1:PDL1, ELISA
Description: Identification of Antagonistic PDL1 Aptamers Using an ELISA-Based Competition Assay To investigate the efficacy of candidate PDL1 aptamers as antagonistic agents, ELISA-based competition assay was performed. Human PDL1 recombinant protein (2 µg/ml) was coated onto wells of 96-well ELISA plates and blocked by BSA (10 mg/ml). Human PD-1 protein (0.6 µg/ml) and aptamer (500 nmole/l) were added into wells simultaneously. After washing away unbound human PD-1 protein, PD-1 protein which remained in wells was detected by HRP-labeled anti-human IgG antibody. TMB was used as HRP substrate for color development and absorbance at 652 nm was detected by ELISA plate reader. Remained human PD-1 protein amount was quantified using standard curve which built by serial diluted human PD-1 protein. Wells without PDL1 coating were used as negative control.
To further investigate 50% effective dose of AP14 and AP32 as PDL1 blocking agents, serial diluted AP14 and AP32 ranged from 12.5 nmole/l to 500 nmole/l were used in previously mentioned ELISA-based competition assay.

[5] = Mfold-predicted long terminal stem and two short stem loops

T1 sequence (Q9NZQ7 19-238, one chain of several): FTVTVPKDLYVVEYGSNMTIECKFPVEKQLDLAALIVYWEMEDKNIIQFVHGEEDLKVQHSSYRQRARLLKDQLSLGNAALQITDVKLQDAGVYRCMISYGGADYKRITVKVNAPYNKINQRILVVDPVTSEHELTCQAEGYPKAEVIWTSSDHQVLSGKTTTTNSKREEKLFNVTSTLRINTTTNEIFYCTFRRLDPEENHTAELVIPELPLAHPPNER
PDL1 (CD274) on CT26 cells, sequence (Q9EP73 19-290, one chain of several): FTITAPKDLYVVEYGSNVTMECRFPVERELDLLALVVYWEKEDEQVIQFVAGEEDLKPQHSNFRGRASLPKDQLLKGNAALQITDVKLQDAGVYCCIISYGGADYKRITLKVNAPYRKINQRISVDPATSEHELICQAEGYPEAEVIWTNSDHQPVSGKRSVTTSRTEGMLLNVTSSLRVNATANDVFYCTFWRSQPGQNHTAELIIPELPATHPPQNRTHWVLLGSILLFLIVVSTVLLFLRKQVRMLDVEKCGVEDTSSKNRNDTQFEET
PDL1 (CD274) on LL/2 cells, sequence (Q9EP73 19-290, one chain of several): as above

Binder | binding signal [3] | also measured
ACGGGCCACATCAACTCATTGATAGACAATGCGTCCACTGCCCGT (ssDNA) [aptPDL1 fluorescently labeled] | – | Kd [1]: ~250 nM; Kd [2]: ~155 nM
AP14 (ssDNA) DNA: TCCCTACGGCGCTAACCACTCAATAATTCCACTGCTACATACGTTTGCCACCGTGCTACAAC | > 5 fold over BSA | EC50 [4]: 41 nM
AP48 (ssDNA) DNA: TCCCTACGGCGCTAACCATGTTCCTTTCGTTCTGCCTTTTCCTTCCGCCACCGTGCTACAAC | > 5 fold over BSA | –
AP32 (62-nt) (ssDNA) DNA: TCCCTACGGCGCTAACACATCAACTTGATAGACAACTGCGTCCACTGCCACCGTGCTACAAC | – | binding signal [3, 5]: > 5 fold over BSA; EC50 [4, 5]: 12 nM
AP36 (ssDNA) DNA: TCCCTACGGCGCTAACCATGTTTTCGAAAGACAATCCGCTGCCCTGGCCACCGTGCTACAAC | > 5 fold over BSA | –
AP22 (ssDNA) DNA: TCCCTACGGCGCTAACAAACTAGGGTCCATTTGTGTACCTGCGAGCCACCGTGCTACAAC | > 5 fold over BSA | –
AP33 (ssDNA) DNA: TCCCTACGGCGCTAACCATCTGGTACCTTACGACGCTTCATCTCCCGCCACCGTGCTACAAC | > 5 fold over BSA | –

Source: patent US10584341, “Antagonistic PDL1 aptamers and their applications in cancer therapy” (Academia Sinica)
